Results as given in patent publication US20200247894A1 (Regeneron, published 2020).

T1: D1 domain of human IL-2Rγ extracellular domain expressed with a C-terminal myc-myc-hexahistidine tag (human)
T1 construct: also called human IL2Rγ domain 1
T1 chain: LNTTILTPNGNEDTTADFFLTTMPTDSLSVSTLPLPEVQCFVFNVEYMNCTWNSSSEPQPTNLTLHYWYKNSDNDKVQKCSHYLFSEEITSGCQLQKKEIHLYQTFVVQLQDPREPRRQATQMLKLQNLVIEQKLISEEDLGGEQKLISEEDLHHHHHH

T2: D2 domain of human IL2Rγ extracellular domain expressed with a C-terminal myc-myc-hexahistidine tag (human)
T2 construct: also called human IL2Rγ domain 2
T2 chain: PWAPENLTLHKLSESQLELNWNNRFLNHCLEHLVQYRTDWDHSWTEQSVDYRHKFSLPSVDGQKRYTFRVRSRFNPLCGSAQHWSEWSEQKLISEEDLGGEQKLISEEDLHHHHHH


Key:
[1] = molecular target: T1, D1 domain of human IL-2Rγ extracellular …; experiment: SPR, mAb captured on anti-hFc, 37 C
Description: (§1) Equilibrium dissociation constants (KD values) for IL-2Rγ binding to purified anti-IL2Rγ monoclonal antibodies were determined using a Biacore 4000 instrument equipped with a real-time surface plasmon resonance biosensor. All binding studies were performed in 10 mM HEPES, 150 mM NaCl, 3 mM EDTA, and 0.05% v/v Surfactant Tween-20, pH 7.4 (HBS-ET) running buffer at 25° C. and 37° C. The Biacore sensor surface was first derivatized by amine coupling with a monoclonal mouse anti-human Fc antibody (GE, # BR-1008-39) to capture anti-IL2Rγ monoclonal antibodies.
(§2) The dissociation of monoclonal antibody bound IL2Rγ reagents were monitored for 8-10 minutes in HBS-ET running buffer. Kinetic association (kₐ) and dissociation (kd) rate constants were determined by fitting the real-time sensorgrams to a 1:1 binding model using Scrubber 2.0c curve fitting software. Binding dissociation equilibrium constants (KD) and dissociative half-lives (t_{1/2}) were calculated from the kinetic rate constants as: […]

[2] = molecular target: T2, D2 domain of human IL2Rγ extracellular …; experiment: SPR, mAb captured on anti-hFc, 25 C
Description: as §1

[3] = molecular target: T2, D2 domain of human IL2Rγ extracellular …; experiment: SPR, mAb captured on anti-hFc, 37 C
Description: as §1

[4] = molecular target: T1, D1 domain of human IL-2Rγ extracellular …; experiment: SPR, mAb captured on anti-hFc, 25 C
Description: as §1, §2

Binder | 100 nM Ag Bound [1] [RU] | 100 nM Ag Bound [2] [RU] | binding result [2] | 100 nM Ag Bound [3] [RU] | 100 nM Ag Bound [4] [RU] | binding result [4] | Kd [1] [nM] | koff [1] [s⁻¹] | kon [1] [M⁻¹ s⁻¹] | t½ [1] [min] | Kd [4] [nM] | koff [4] [s⁻¹] | kon [4] [M⁻¹ s⁻¹] | t½ [4] [min]
H4H13538P (antibody, human IgG4 S228P, kappa, V domains shown, human IgG4) VH: EVQLVESGGGLVQPGGSLGLSCAASGFTFSNYAMSWVRQAPGKGLEWVSAVSGGGGGTYYADSVKGRFTISRDNSKNTVLLQMNSLRAEDTAVYYCARGRTGGLDYWGPGTLVTVSS VL: DVVMTQSPLSLPVIFGQPASISCRSSQSLVDSDGNTYLNWLQQRPGQSPRRLIYEVSNRDSGVPDRFSGSGSGTDFTLTISRVEAEDVGIYYCMQGTRWPPTFGGGTKVEIKR | 2 | 6 | no binding (tested: 100 nM) | 6 | 2 | no binding (tested: 100 nM) | – | – | – | – | – | – | – | –
H4H13545P2 (antibody, human IgG4 S228P, kappa, V domains shown, human IgG4) VH: QVQLQQSGPGLVKPSQTLSLTCDISGDSVSSNIATWNWIRQSPSRGLEWLGRTYYRSKWYKDYAVSVKSRITINPDTSKNQFSLQVNSVTPEDTAVYYCARMTGPRYYFEYWGQGTLVTVSS VL: not shown | 4 | 5 | no binding (tested: 100 nM) | 3 | 8 | no binding (tested: 100 nM) | – | – | – | – | – | – | – | –
H4H13544P2 (antibody, human IgG4 S228P, kappa, V domains shown, human IgG4) VH: QLQLQESGPGLVKPSETLSLTCTVSGGSISIKNYYWGWIRQPPGKGLEWIGSIYYSGTTYYNPSLKSRVTISVDTSKNQFSLKLSSVTAADTAVYHCARHGYSYGHGWFDPWGQGTLVTVSS VL: not shown | 22 | 5 | no binding (tested: 100 nM) | 4 | 24 | – | 225 | 0.0105 | 46400 | 1.1 | 57.8 | 0.00207 | 35800 | 6
H4H13541P (antibody, human IgG4 S228P, kappa, V domains shown, human IgG4) VH: EVQLVESGGGVVRPGGSLRLSCAASGFIFDDYDMSWVRQPPGRGLEWVSGIDWFGGTRGYADSMKGRFTISRDNAKNSLYLQMNSLRVEDTAFYYCARGGAIVGAVTPFDYWGQGTLVTVSS VL: DIQMTQSPSSLSASVGNRVTLSCRASQSINTYLSWYQQRPGKAPKLLIYAASSLQSGVPSRFSGSGAGTDFTLTISSLQPEDFATYYCQQSYSAPLTFGGGTKVEIKR | 2 | 10 | no binding (tested: 100 nM) | 7 | 2 | no binding (tested: 100 nM) | – | – | – | – | – | – | – | –
